Here are results for 1 molecule from paper PMC9215227 (Journal of Virology, 2022).

This experiment addresses NP of SARS-CoV-2 (catalog no. 40588-V07E; Sino Biological) (SARS-CoV-2, UniProt P0DTC9 1-419). Kind of experiment: SPR; […], Biacore T200; 0.01 M HEPES pH 7.4, 0.15 M NaCl, 3 mM EDTA, 0.05% Tween 20; […]; 1:1 binding model. As to conditions: both partners purified.

B1: 6×His-Flag-G3BP2 (natural protein)
chain: MVMEKPSPLLVGREFVRQYYTLLNKAPEYLHRFYGRNSSYVHGGVDASGKPQEAVYGQNDIHHKVLSLNFSECHTKIRHVDAHATLSDGVVVQVMGLLSNSGQPERKFMQTFVLAPEGSVPNKFYVHNDMFRYEDEVFGDSEPELDEESEDEVEEEQEERQPSPEPVQENANSGYYEAHPVTNGIEEPLEESSHEPEPEPESETKTEELKPQVEEKNLEELEEKSTTPPPAEPVSLPQEPPKAFSWASVTSKNLPPSGTVSSSGIPPHVKAPVSQPRVEAKPEVQSQPPRVREQRPRERPGFPPRGPRPGRGDMEQNDSDNRRIIRYPDSHQLFVGNLPHDIDENELKEFFMSFGNVVELRINTKGVGGKLPNFGFVVFDDSEPVQRILIAKPIMFRGEVRLNVEEKKTRAARERETRGGGDDRRDIRRNDRGPGGPRGIVGGGMMRDRDGRGPPPRGGMAQKLGSGRGTGQMEGRFTGQRR
Molecule B1 displayed a Kd of 103 nM.
